Assay results: patent US20220281966A1
One block for each binder: values may come before it.

Molecular target: IL-13 (human IL-13, preparation not specified) (human) (UniProt P35225)
Experiment: cell-based or functional assay

Chain of IL-13 (human IL-13, preparation not specified) (human) (P35225 35-146 limits assumed): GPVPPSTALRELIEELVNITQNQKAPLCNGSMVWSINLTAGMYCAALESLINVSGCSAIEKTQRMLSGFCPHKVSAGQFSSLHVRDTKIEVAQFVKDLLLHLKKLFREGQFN

IC50, Eotaxin-1 assay, Average: 0.131 nM | IC50, Eotaxin-1 assay, n = 1: 0.128 nM | IC50, Eotaxin-1 assay, n = 2: 0.147 nM | IC50, Eotaxin-1 assay, n = 3: 0.119 nM
B1: human IL-13 receptor α2/Fc (Fc fusion, UniProt Q14627 27-343, looked up, not shown: a dimerising Fc or GST)
chain: DTEIKVNPPQDFEIVDPGYLGYLYLQWQPPLSLDHFKECTVEYELKYRNIGSETWKTIITKNLHYKDGFDLNKGIEAKIHTLLPWQCTNGSEVQSSWAETTYWISPQGIPETKVQDMDCVYYNWQYLLCSWKPGIGVLLDTNYNLFYWYEGLDHALQCVDYIKADGQNIGCRFPYLEASDYKDFYICVNGSSENKPIRSSYFTFQLQNIVKPLPPVYLTFTRESSCEIKLKWSIPLGPIPARCFDYEIEIREDDTTLVTATVENETYTLKTTNETRQLCFVVRSKVNIYCSDDGIWSEWSDKQCWEGEDLSKKTLLR

IC50, Eotaxin-1 assay, Average: 0.032 nM | IC50, Eotaxin-1 assay, n = 1: 0.029 nM | IC50, Eotaxin-1 assay, n = 2: 0.039 nM | IC50, Eotaxin-1 assay, n = 3: 0.029 nM
B2: murine IL-13 receptor α2/FC (Fc fusion, UniProt O88786 22-334, looked up, not shown: a dimerising Fc or GST)
chain: LEIKVNPPQDFEILDPGLLGYLYLQWKPPVVIEKFKGCTLEYELKYRNVDSDSWKTIITRNLIYKDGFDLNKGIEGKIRTHLSEHCTNGSEVQSPWIEASYGISDEGSLETKIQDMKCIYYNWQYLVCSWKPGKTVYSDTNYTMFFWYEGLDHALQCADYLQHDEKNVGCKLSNLDSSDYKDFFICVNGSSKLEPIRSSYTVFQLQNIVKPLPPEFLHISVENSIDIRMKWSTPGGPIPPRCYTYEIVIREDDISWESATDKNDMKLKRRANESEDLCFFVRCKVNIYCADDGIWSEWSEEECWEGYTGPDSK
